Like-named read-outs stand apart in the source and are kept apart here.
T1: IFNAR1 (human, UniProt P17181 28-557)
T1 sequence (looked up): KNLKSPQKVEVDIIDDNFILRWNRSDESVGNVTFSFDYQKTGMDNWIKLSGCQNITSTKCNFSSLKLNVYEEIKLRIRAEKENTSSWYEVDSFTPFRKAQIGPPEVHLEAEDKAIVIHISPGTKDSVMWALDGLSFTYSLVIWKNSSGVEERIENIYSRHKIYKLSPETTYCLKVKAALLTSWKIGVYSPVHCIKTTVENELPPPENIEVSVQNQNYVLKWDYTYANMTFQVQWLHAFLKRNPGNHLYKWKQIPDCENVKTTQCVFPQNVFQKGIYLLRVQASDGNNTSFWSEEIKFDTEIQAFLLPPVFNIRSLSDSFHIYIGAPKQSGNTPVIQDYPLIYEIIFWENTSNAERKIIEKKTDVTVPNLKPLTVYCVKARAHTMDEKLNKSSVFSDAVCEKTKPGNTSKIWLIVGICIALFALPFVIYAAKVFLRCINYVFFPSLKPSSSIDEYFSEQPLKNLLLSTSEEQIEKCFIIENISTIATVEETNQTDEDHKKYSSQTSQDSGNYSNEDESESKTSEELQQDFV

T2: recombinant human APRIL (R&D cat: 5860-AP-010/CF) (human, UniProt O75888 105-250, limits assumed)
T2 sequence (looked up): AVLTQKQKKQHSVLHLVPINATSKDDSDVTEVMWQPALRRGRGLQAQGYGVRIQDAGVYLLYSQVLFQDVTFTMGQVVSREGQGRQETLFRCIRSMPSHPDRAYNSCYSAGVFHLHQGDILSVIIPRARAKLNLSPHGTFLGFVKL

T3: APRIL (Acro Biosystems, Cat: APL-H52D1) (UniProt O75888 115-250, limits assumed)
T3 construct: also called ARPIL
T3 sequence (looked up): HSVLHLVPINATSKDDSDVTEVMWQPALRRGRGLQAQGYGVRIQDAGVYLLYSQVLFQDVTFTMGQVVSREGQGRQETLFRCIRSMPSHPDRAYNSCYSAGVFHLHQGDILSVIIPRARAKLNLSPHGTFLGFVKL


Columns and labels:
IFNAR1 [1] = molecular target: T1, IFNAR1; test: cell-based or functional assay
IFNAR1 [2] = molecular target: T1, IFNAR1; test: cell-based or functional assay; remark: listed apart in the source
[3] = molecular target: T4, recombinant human BAFF (R&D cat: 7537-BF-025/CF) (human, UniProt Q9Y275 134-285); test: cell-based or functional assay
[4] = molecular target: T2, recombinant human APRIL (R&D cat: …); test: cell-based or functional assay
[5] = molecular target: T4, recombinant human BAFF (R&D cat: …); test: cell-based or functional assay; remark: listed apart in the source
[6] = molecular target: T3, APRIL (Acro Biosystems, Cat: APL-H52D1); test: ELISA, APRIL coated at 1 ug/mL, anti-human Fc-HRP, OD450
Protocol: The capabilities of fusion proteins B606401, B637302, B746201, and B805201 to bind to BAFF and APRIL were assessed by ELISA as follows:
(§1) BAFF (PeproTech, Cat: 310-13) or ARPIL (Acro Biosystems, Cat: APL-H52D1) was diluted to 1 μg/mL with PBS, and a 96-well plate was coated with the dilution overnight at 4° C. The plate was washed with PBST and blocked with Blocking Buffer (PBST containing 1% BSA) at 37° C. for 1 h. The plate was tapped. The test antibodies were diluted with Blocking Buffer. Incubation was performed at 37° C. for 1.5 h. The plate was washed with PBST. An HRP-mouse anti-human Fc antibody (GenScript, Cat: A01854-200) was diluted with Blocking Buffer. Incubation was performed at 37° C. for 40 min. The plate was washed with PBST. 100 μL of TMB substrate solution (Biopanda, Cat: TMB-S-003) was added, and color development was performed at 37° C. for 3 min. 100 μL of ELISA stop solution (Solarbio, Cat: C1058) was added. OD450 was measured.

[7] = molecular target: T2, recombinant human APRIL (R&D cat: …); test: cell-based or functional assay; remark: listed apart in the source
[8] = molecular target: T3, APRIL (Acro Biosystems, Cat: APL-H52D1); test: ELISA, APRIL coated at 1 ug/mL, anti-human Fc-HRP, OD450; remark: listed apart in the source
Protocol: as §1, with “The capabilities of B613301, B613302, and B613303, which are fusion proteins of anifrolumab and TACI-BCMA, to bind to BAFF and APRIL were assessed by ELISA as follows: [0548] BAFF (PeproTech,” for “BAFF (PeproTech,”, “96-well plate (Costar, Cat: 3590) was coated” for “96-well plate was coated”

T4 sequence (Q9Y275 134-285 limits assumed): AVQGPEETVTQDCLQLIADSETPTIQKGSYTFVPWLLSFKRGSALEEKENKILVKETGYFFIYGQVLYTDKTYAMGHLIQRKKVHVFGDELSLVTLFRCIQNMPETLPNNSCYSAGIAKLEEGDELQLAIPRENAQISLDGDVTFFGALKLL

Row | Binder | IC50, inhibition of IFN-alpha-induced in vitro differentiation of B cells into plasma cells (CD27+ CD38+) (IFNAR1 [1]) [nM] | IC50 (nM), inhibition of the activity of type I interferons (IFN-beta, HEK-Blue IFN-alpha/beta reporter cells) (IFNAR1 [2]) [nM] | Flow cytometry proliferating B cell proportion (%), mean value, BAFF-induced, drug at 10 nM (IgG1: 40.15) [3] [%] | Flow cytometry proliferating B cell proportion (%), mean value, BAFF-induced, drug at 100 nM (IgG1: 40.60) [3] [%] | Flow cytometry proliferating B cell proportion (%), mean value, BAFF-induced, drug at 1000 nM (IgG1: 33.97) [3] [%] | CD27+ CD38+ plasma cell count, mean value, BAFF + APRIL-induced (both ligands together), drug at 10 nM (IgG1: 2687) [4] [cells] | CD27+ CD38+ plasma cell count, mean value, BAFF + APRIL-induced (both ligands together), drug at 100 nM (IgG1: 2496) [4] [cells] | CD27+ CD38+ plasma cell count, mean value, BAFF + APRIL-induced (both ligands together), drug at 1000 nM (IgG1: 2279) [4] [cells] | CD27+ CD38+ plasma cell count, mean value, BAFF + APRIL-induced (both ligands together), drug at 100 nM (IgG1: 2496) [5] [cells] | CD27+ CD38+ plasma cell count, mean value, BAFF + APRIL-induced (both ligands together), drug at 1000 nM (IgG1: 2279) [5] [cells] | EC50 [6] [nM] | Emax [6] | Flow cytometry proliferating B cell proportion (%), mean value, APRIL-induced, drug at 4.12 nM (IgG1: 55.30) [7] [%] | Flow cytometry proliferating B cell proportion (%), mean value, APRIL-induced, drug at 12.35 nM (IgG1: 54.80) [7] [%] | Flow cytometry proliferating B cell proportion (%), mean value, APRIL-induced, drug at 37.04 nM (IgG1: 56.63) [7] [%] | Flow cytometry proliferating B cell proportion (%), mean value, APRIL-induced, drug at 111.11 nM (IgG1: 55.83) [7] [%] | Flow cytometry proliferating B cell proportion (%), mean value, APRIL-induced, drug at 333.33 nM (IgG1: 56.27) [7] [%] | Flow cytometry proliferating B cell proportion (%), mean value, APRIL-induced, drug at 1000.00 nM (IgG1: 53.27) [7] [%] | EC50 [8] [nM] | Emax [8]
1 | Anifrolumab (antibody, human IgG1, kappa, V domains shown) VH: EVQLVQSGAEVKKPGESLKISCKGSGYIFTNYWIAWVRQMPGKGLESMGIIYPGDSDIRYSPSFQGQVTISADKSITTAYLQWSSLKASDTAMYYCARHDIEGFDYWGRGTLVTVSS VL: EIVLTQSPGTLSLSPGERATLSCRASQSVSSSFFAWYQQKPGQAPRLLIYGASSRATGIPDRLSGSGSGTDFTLTITRLEPEDFAVYYCQQYDSSAITFGQGTRLEIKR | 12.7 | 1.53 | – | – | – | – | – | – | – | – | – | – | – | – | – | – | – | – | – | –
2 | B637302 (other, Fusion protein of anifrolumab, TACI-19-16 and BCMA-ECD-2 (C-terminus of the light chain)) heavy: EVQLVQSGAEVKKPGESLKISCKGSGYIFTNYWIAWVRQMPGKGLESMGIIYPGDSDIRYSPSFQGQVTISADKSITTAYLQWSSLKASDTAMYYCARHDIEGFDYWGRGTLVTVSSASTKGPSVFPLAPSSKSTSGGTAALGCLVKDYFPEPVTVSWNSGALTSGVHTFPAVLQSSGLYSLSSVVTVPSSSLGTQTYICNVNHKPSNTKVDKRVEPKSCDKTHTCPPCPAPEFEGGPSVFLFPPKPKDTLMISRTPEVTCVVVDVSHEDPEVKFNWYVDGVEVHNAKTKPREEQYNSTYRVVSVLTVLHQDWLNGKEYKCKVSNKALPASIEKTISKAKGQPREPQVYTLPPSRDELTKNQVSLTCLVKGFYPSDIAVEWESNGQPENNYKTTPPVLDSDGSFFLYSKLTVDKSRWQQGNVFSCSVMHEALHNHYTQKSLSLSPGK light: EIVLTQSPGTLSLSPGERATLSCRASQSVSSSFFAWYQQKPGQAPRLLIYGASSRATGIPDRLSGSGSGTDFTLTITRLEPEDFAVYYCQQYDSSAITFGQGTRLEIKRTVAAPSVFIFPPSDEQLKSGTASVVCLLNNFYPREAKVQWKVDNALQSGNSQESVTEQDSKDSTYSLSSTLTLSKADYEKHKVYACEVTHQGLSSPVTKSFNRGECGGGGSGGGGSMLQMAGQCSQNEYFDSLLHACIPCQLRCSSNTPPLTCQRYCSTSCREEQGEFYDHLLRDCISCASICGQHPKQCAAFCE | 10.8 | 1.59 | 23.8 | 22.2 | 10.9 | 563 | 482 | 137 | 482 | 137 | 0.0819 | 2.9 | 50.6 | 50.7 | 53.6 | 51.5 | 48 | 33.6 | – | –
3 | B613303 (other, Fusion protein of anifrolumab and TACI-BCMA) heavy: EVQLVQSGAEVKKPGESLKISCKGSGYIFTNYWIAWVRQMPGKGLESMGIIYPGDSDIRYSPSFQGQVTISADKSITTAYLQWSSLKASDTAMYYCARHDIEGFDYWGRGTLVTVSSASTKGPSVFPLAPSSKSTSGGTAALGCLVKDYFPEPVTVSWNSGALTSGVHTFPAVLQSSGLYSLSSVVTVPSSSLGTQTYICNVNHKPSNTKVDKRVEPKSCDKTHTCPPCPAPEFEGGPSVFLFPPKPKDTLMISRTPEVTCVVVDVSHEDPEVKFNWYVDGVEVHNAKTKPREEQYNSTYRVVSVLTVLHQDWLNGKEYKCKVSNKALPASIEKTISKAKGQPREPQVYTLPPSRDELTKNQVSLTCLVKGFYPSDIAVEWESNGQPENNYKTTPPVLDSDGSFFLYSKLTVDKSRWQQGNVFSCSVMHEALHNHYTQKSLSLSPGK light: EIVLTQSPGTLSLSPGERATLSCRASQSVSSSFFAWYQQKPGQAPRLLIYGASSRATGIPDRLSGSGSGTDFTLTITRLEPEDFAVYYCQQYDSSAITFGQGTRLEIKRTVAAPSVFIFPPSDEQLKSGTASVVCLLNNFYPREAKVQWKVDNALQSGNSQESVTEQDSKDSTYSLSSTLTLSKADYEKHKVYACEVTHQGLSSPVTKSFNRGECGGGGSGGGGSSRVDQEERFPQGLWTGVAMRSCPEEQYWDPLLGTCMSCKTICNHQSQRTCAAFCRSLSCRKEQGKFYDHLLRDCISCASICGQHPKQCAYFCENKLRSPVNLPPELMLQMAGQCSQNEYFDSLLHACIPCQLRCSSNTPPLTCQRYCNASVTNSVKGTNA | – | – | – | – | – | – | – | – | – | – | – | – | – | – | – | – | – | – | 0.151 | 2.33
